Measured values reported in PMC4869175, “Evidence that phytochrome functions as a protein kinase in plant light signalling” (Nature Communications, 2016).
Positions count from the first letter of the chain named.

T1: AsphyA T418D, full length (Avena sativa, UniProt P06593 1-1129, T418D, phycocyanobilin chromophore assembled)
T1 construct: Avena sativa phytochrome A, full length, with T418D; source: phycocyanobilin added in vitro
T1 sequence (looked up): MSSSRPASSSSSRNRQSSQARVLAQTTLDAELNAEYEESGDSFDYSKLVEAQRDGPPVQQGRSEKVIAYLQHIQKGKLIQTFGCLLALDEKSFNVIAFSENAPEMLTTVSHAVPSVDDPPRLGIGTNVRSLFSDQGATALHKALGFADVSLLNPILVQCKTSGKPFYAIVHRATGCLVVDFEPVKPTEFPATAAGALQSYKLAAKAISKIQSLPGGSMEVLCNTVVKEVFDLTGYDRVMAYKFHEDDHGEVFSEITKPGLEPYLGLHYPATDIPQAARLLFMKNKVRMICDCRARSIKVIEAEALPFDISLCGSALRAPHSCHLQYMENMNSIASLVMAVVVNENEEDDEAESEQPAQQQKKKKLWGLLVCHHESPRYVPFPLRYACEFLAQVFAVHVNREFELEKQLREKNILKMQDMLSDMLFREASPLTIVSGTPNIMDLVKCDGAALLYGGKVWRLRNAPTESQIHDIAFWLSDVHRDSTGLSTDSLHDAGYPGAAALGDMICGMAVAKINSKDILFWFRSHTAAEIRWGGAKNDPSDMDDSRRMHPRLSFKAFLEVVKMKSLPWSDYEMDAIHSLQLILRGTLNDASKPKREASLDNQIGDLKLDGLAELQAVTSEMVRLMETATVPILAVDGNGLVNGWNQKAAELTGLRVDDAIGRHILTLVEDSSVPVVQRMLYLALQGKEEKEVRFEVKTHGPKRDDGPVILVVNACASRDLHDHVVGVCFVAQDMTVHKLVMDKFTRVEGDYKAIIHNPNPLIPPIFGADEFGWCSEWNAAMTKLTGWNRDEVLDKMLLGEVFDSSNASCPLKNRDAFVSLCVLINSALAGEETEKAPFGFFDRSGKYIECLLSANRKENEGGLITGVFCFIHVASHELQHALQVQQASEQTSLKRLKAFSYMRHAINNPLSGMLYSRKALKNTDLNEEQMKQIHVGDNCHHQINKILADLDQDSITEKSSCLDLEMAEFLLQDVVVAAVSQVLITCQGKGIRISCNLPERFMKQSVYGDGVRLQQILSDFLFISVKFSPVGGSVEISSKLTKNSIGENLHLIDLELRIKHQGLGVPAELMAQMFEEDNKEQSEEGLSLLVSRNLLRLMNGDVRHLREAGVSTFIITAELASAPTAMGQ

T2: AsphyA K411L, full length (Avena sativa, UniProt P06593 1-1129, K411L, phycocyanobilin chromophore assembled)
T2 construct: Avena sativa phytochrome A, full length, with K411L; source: phycocyanobilin added in vitro
T2 sequence (looked up): T1 sequence (looked up) with K411L, D418T

B1: GST/strep-fused FHL (natural protein, UniProt A8MR65 1-201, looked up)
chain: MDDADKSCSPSLDHSDINDPMIVAVESLDTSKKRKLHAEESDLLPLPKHFCSEHQASLVNSSCPSSVIDYAECSYAMENTKTSDEASSSASFTGPSLYMFKDSIYSTGSSSSGYAATSSIEQCFSKVDHKTQEDTQDFTHMEFIYHDSEFAVEDLQEVLNPVESYILSSARWSVSNQDSKEATTKPTIDQEFEQYFSTLMM
notes: FHL, which with FHY1 takes part in the nuclear localization of phyA; not shown: GST, N-terminal, kept
B2: GST/strep-fused FHY1 (far-red elongated hypocotyl 1) (natural protein, UniProt Q8S4Q6 1-202, looked up)
chain: MPEVEVDNNNEKPSEINSFHHMIISSSKNVLKMEEVEVSKKRKFQTDQSDELSLLPLSKHTCFANVACSENTNGNSEIDTEYSMSSYVNSTTSMECNNDIEMKEESSGSCGEDKMISFESHLDYIYGTQNLEDFSEKVIENILYLDEQEEEEEDAKGCSSNAAKFVLSSGRWTVNQDDSTLHETKKPTIDQEFEQYFSTLML
notes: FHY1 (far-red elongated hypocotyl 1); not shown: GST, N-terminal, kept
B3: GST/strep-fused PIF3 (natural protein, UniProt O80536 1-524, looked up)
chain: MPLFELFRLTKAKLESAQDRNPSPPVDEVVELVWENGQISTQSQSSRSRNIPPPQANSSRAREIGNGSKTTMVDEIPMSVPSLMTGLSQDDDFVPWLNHHPSLDGYCSDFLRDVSSPVTVNEQESDMAVNQTAFPLFQRRKDGNESAPAASSSQYNGFQSHSLYGSDRARDLPSQQTNPDRFTQTQEPLITSNKPSLVNFSHFLRPATFAKTTNNNLHDTKEKSPQSPPNVFQTRVLGAKDSEDKVLNESVASATPKDNQKACLISEDSCRKDQESEKAVVCSSVGSGNSLDGPSESPSLSLKRKHSNIQDIDCHSEDVEEESGDGRKEAGPSRTGLGSKRSRSAEVHNLSERRRRDRINEKMRALQELIPNCNKVDKASMLDEAIEYLKSLQLQVQIMSMASGYYLPPAVMFPPGMGHYPAAAAAMAMGMGMPYAMGLPDLSRGGSSVNHGPQFQVSGMQQQPVAMGIPRVSGGGIFAGSSTIGNGSTRDLSGSKDQTTTNNNSNLKPIKRKQGSSDQFCGSS
notes: Probably Arabidopsis PIF3, as PIF1 and PIF4 are called Arabidopsis; not shown: GST, N-terminal, kept

Legend:
[1] = biological target: T1, AsphyA T418D, full length; assay: pull-down; GST/strep-fused interacting protein (1.0 μg) held on glutathione resin, phytochrome (1.0 μg) in solution, Pr and Pfr forms both tested; 60 min at 4 °C in pull-down buffer (100 mM Tris-HCl pH 7.8, 1 mM EDTA, 150 mM NaCl, 100 μg/ml BSA); western blot with oat22 and anti-GST; conditions: both partners purified
[2] = biological target: T2, AsphyA K411L, full length; assay: as above; conditions: both partners purified

Binder	binding result [1]	binding result [2]
B1	binds	binds
B2	binds	binds
B3	binds	binds
